Consider five proteins from patent US20120077224A1 (SALK INSTITUTE FOR BIOLOGICAL STUDIES, published 2012).

Non-standard residues stand in square brackets, D forms with d. Phe(4-N3) = [N-]=[N+]=Nc1ccc(C[C@H](N)C(=O)O)cc1

Series [1] deals with the molecule itself. In words: in-cell photocrosslinking of the GST homodimer (365 nm, 10 min), band intensity ratio on anti-His Western blot. The protocol:
E. coli GST is homodimer (Nishida et al., J. Mol. Biol., 1998, 281:135-147). Three sites at the dimer interface, Asn87 in a loop and Tyr92 and Val125 in α-helices were chosen for incorporating Azi (FIG. 10A). GST genes with TAG mutation at these sites and a C-terminal His6 tag were cotransfected with the orthogonal tRNACUA^Tyr/EAziRS pair in HEK293 cells, and the cells were grown in the presence of 1 mM of Azi. Photocrosslinking was performed by exposing the cells under 365 nm UV light for 10 minutes. Cell lysates were separated on SDS-PAGE and probed with an antibody against the His6 tag.
After photocrosslinking, higher molecular weight bands around 46 kD emerged, accompanied by the intensity decrease of the monomer band (several faint bands between 23 kD and 46 kD were proteins in the cell lysate recognized by the penta-His antibody nonspecifically, which were also seen in samples without exposure to UV light). […] Crosslinked GST migrated at different positions in the gel depending on where Azi was incorporated.
On the technique in general: Immunoblotting shows a protein as a band on a membrane.

Series [2] deals with the molecule itself. Put plainly: in-cell photocrosslinking of the GST homodimer, anti-FLAG Western blot.

B1: E. coli glutathione S-transferase (GST) with p-azidophenylalanine (Azi) incorporated at Asn87 (87TAG), C-terminal His6 tag (enzyme)
chain: MKLFYKPGACSLASHITLRESGKDFTLVSVDLMKKRLENGDDYFAVNPKGQVPALLLDDGTLLTEGVAIMQYLADSVPDRQLLAPV[Phe(4-N3)]SISRYKTIEWLNYIATELHKGFTPLFRPDTPEEYKPTVRAQLEKKLQYVNEALKDEHWICGQRFTIADAYLFTVLRWAYAVKLNLEGLEHIAAFMQRMAERPEVQDALSAEGLKHHHHHH
notes: Expressed in HEK293/HEK293T cells with tRNACUA-Tyr/EAziRS and 1 mM Azi; crosslinked in live cells with 365 nm UV; X stands for the unnatural amino acid Azi; also called GST 87TAG; site 87
Turning to B1, in series [1], the crosslinking efficiency came to 33%.

B2: E. coli glutathione S-transferase (GST) with p-azidophenylalanine (Azi) incorporated at Val125 (125TAG), C-terminal FLAG tag (enzyme, UniProt P0A9D2 1-201, looked up)
chain: MKLFYKPGACSLASHITLRESGKDFTLVSVDLMKKRLENGDDYFAVNPKGQVPALLLDDGTLLTEGVAIMQYLADSVPDRQLLAPVNSISRYKTIEWLNYIATELHKGFTPLFRPDTPEEYKPT[Phe(4-N3)]RAQLEKKLQYVNEALKDEHWICGQRFTIADAYLFTVLRWAYAVKLNLEGLEHIAAFMQRMAERPEVQDALSAEGLK
modifications: not fully specified (C-terminus); also: homodimer
notes: not shown: C-terminal FLAG tag replacing the His6 tag
Consider B2, for which the binding result in series [2] was “binds”.

B3: E. coli glutathione S-transferase (GST) with p-azidophenylalanine (Azi) incorporated at Asn87 (87TAG), C-terminal FLAG tag (enzyme, UniProt P0A9D2 1-201, looked up)
chain: MKLFYKPGACSLASHITLRESGKDFTLVSVDLMKKRLENGDDYFAVNPKGQVPALLLDDGTLLTEGVAIMQYLADSVPDRQLLAPV[Phe(4-N3)]SISRYKTIEWLNYIATELHKGFTPLFRPDTPEEYKPTVRAQLEKKLQYVNEALKDEHWICGQRFTIADAYLFTVLRWAYAVKLNLEGLEHIAAFMQRMAERPEVQDALSAEGLK
modifications: not fully specified (C-terminus); also: homodimer
notes: as for B2
Regarding B3, the binding result in series [2] is recorded as “binds”.

B4: E. coli glutathione S-transferase (GST) with p-azidophenylalanine (Azi) incorporated at Val125 (125TAG), C-terminal His6 tag (enzyme)
chain: MKLFYKPGACSLASHITLRESGKDFTLVSVDLMKKRLENGDDYFAVNPKGQVPALLLDDGTLLTEGVAIMQYLADSVPDRQLLAPVNSISRYKTIEWLNYIATELHKGFTPLFRPDTPEEYKPT[Phe(4-N3)]RAQLEKKLQYVNEALKDEHWICGQRFTIADAYLFTVLRWAYAVKLNLEGLEHIAAFMQRMAERPEVQDALSAEGLKHHHHHH
notes: Expressed in HEK293/HEK293T cells with tRNACUA-Tyr/EAziRS and 1 mM Azi; crosslinked in live cells with 365 nm UV; X stands for the unnatural amino acid Azi
For B4, in series [1], the crosslinking efficiency amounted to 98%.

B5: E. coli glutathione S-transferase (GST) with p-azidophenylalanine (Azi) incorporated at Tyr92 (92TAG), C-terminal His6 tag (enzyme)
chain: MKLFYKPGACSLASHITLRESGKDFTLVSVDLMKKRLENGDDYFAVNPKGQVPALLLDDGTLLTEGVAIMQYLADSVPDRQLLAPVNSISR[Phe(4-N3)]KTIEWLNYIATELHKGFTPLFRPDTPEEYKPTVRAQLEKKLQYVNEALKDEHWICGQRFTIADAYLFTVLRWAYAVKLNLEGLEHIAAFMQRMAERPEVQDALSAEGLKHHHHHH
notes: Expressed in HEK293/HEK293T cells with tRNACUA-Tyr/EAziRS and 1 mM Azi; crosslinked in live cells with 365 nm UV; X stands for the unnatural amino acid Azi; also called site 92; GST-His6
On to B5, for which the crosslinking efficiency in series [1] is 40%.
